# In the supplement of paper PMC12636428:
# Test system: Saccharomyces cerevisiae
# Test: transcriptional activation domain activity (GFP:mCherry ratio, weighted mean of sorted bins, harmonized to initial dataset scale) (arbitrary fluorescence ratio units); higher = stronger transcriptional activation
# Details: beta-estradiol 1 µM; induction time 4 h
# In short: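 The listed activation activity is a read-weighted mean of bin median fluorescence, averaged across barcodes and linearly mapped onto the initial dataset scale. Barcoded tiles, fused to an estradiol-inducible synthetic transcription factor, were integrated at URA3 in yeast diploids bearing a GFP reporter. Cells were held 4 hours at 30 °C in SC with 1 uM beta-estradiol, sorted into 8 GFP:mCherry bins, and sequenced, and tiles with fewer than 50 reads were excluded.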
row,Sequence,transcriptional activation domain activity
1,EKKRLLREKNKKRKRGEEVSDDEEEQKEEAAKKAKSEKEDSKHGIWVGNLHFS,50100
2,ESEVAASENGKGKKEEEEKKRKKGLASTRQRNAAGKQSSSSKEEGKGARAYRS,26100
3,HHLSSQLVFSRSRFFYSSFTSWINVFLVISLIVFLLSILLLFLIIFLLHYIFF,24800
4,PLAGNSPGLPPEEVRNNSENASHNNETGPIETELAQTISNEFWTAYNLGWEEL,56400
5,FANWLGLQKNGMGMRLFPFFIFSLFFLSFFSLFWGFSFFFSFSFFFGFSFFWF,23100
6,NNPDAKKARACESCRQLKVKCEPDADNPDGPCRRCAKAGRACVVTQPTRKRQK,38000
7,SKSEVSGTGRKAYAQKGRGKARVHSLRAPQFRGGGRAFPVKPRDFSSEIQIKV,61100
8,MFGIGFFSRVLPWLWLWLWLYFFFFFFLYIFCMHYEQFSLSLTYNKLPFSLAL,65900
9,SGDPDEDGNGHGTHCSGTVAGKKYGVAKKANVYAVKVLRSNGSGSMSDVVKGV,19600
10,ESEGDPEPQPAKSQSRRRQSRGRGRRGAESDSESVARSDVSATGGRRNRQRQK,43500
11,MKACLRCLVFLLGCTSPWCFTRYLALEHFTLFWIDADLWWQVYRFSILVLLSY,44400
12,WIVALAIIVSDYYGVVKGGVAYGLLASSNTSMAVFIFVWHLGGIWMITMLACM,65100
13,DLEELRHLCHALKATFTHVLSIPVCSYFYFPQTSFAMILHSIMIICRWVKLST,35100
14,WPFDESIERNFSTTATAATGESKFDINDNCNRINSKSYSKTNSMNGNGMNNSN,28400
15,MIFFLPLVFTSFFFIFFYMYYTVWTLHLSFVKSLEACMNPWIWELYGSTFIHL,60000
16,QQLGLWIFTWCACNFFLLFFVLKHSIHQKDINILIANVLDIWGLIDPQQILVK,61600
17,NKHVFLILIRSTLCNNWLIATIWVVEIRFCLDLLQTAFPLIFFRFLTWLFFFQ,79900
18,SIEDMTGWKLLHGDVFRAPPNGNILAPLVGSGCQLVYMATGLLMLSCLGILNP,41600
19,NGHIYPLSLNLFCFFSPMHAILYCFSISWDDYLSLAVLHSGLTIQMVLLVWHF,50000
20,EAPREIKAKPEKKKAKPAEAAAPKKESKGKKVKADKKAGADKKADPAAAPAAG,15300
21,IFNPLNWVFVQSSKVFPVDYILALLLVFDFFISSVVGIAFIGIRFLWVTLFRL,71500

row,Sequence,transcriptional activation domain activity
1,MCIFFKGQYPIYLAFVRPFASLFFRVPLFRLFFGIFCAWVLCFLFLLLLSFSC,43600
2,AKEERKAKKKAEKEKAAVAGDAMEVDDSADKKEKKEKKRKRRESEAAGAVKVE,13300
3,PFGFLTDEVKNSYLRCSYKWSFHHIPNLLIAIRERRLDPLLIWAMLAITVRFS,79500
4,VLLFLFVWRWGRRAFWQLRGRGIIGSVVELYVNIRRILYGYFLRAPGVRNKVQ,44100
5,LGGLSRERFFVYVFTSAFLWYFFPGYLFLALSWFSWVTWIWPDDPVVSQLFGY,39500
6,VIFSFLVLNFFYFSISFFLSSSFISYFHFHLSLFPFPFSFVFLIHYLFSFIVN,26300
7,AVPGEVTEAEADSDVKTDDAAAAPATDEAAKPKKKKKKFARKPRRKAAAPAEG,17100
8,MLYLCFLISFYSLCFLFSYFFNFVLDILFFYYFIIFLFSYFSIFLFSYFLICL,54300
9,MLLLPLSFPFLSFPFLSFPFLSFPFLSSPFLSLVFSVLVLFFIFLLLLLLLLL,34900
10,EVYFGLVNRRFRELLLVHERCFDLKVPNYRLMSILLAYLLRHTMVTPKVKYPE,29700
11,LSPGKPHQGMVRVRSPNNMVAFVNLLVRLCDLGFPAHWISDYVQSMLMDKVVT,66400
12,VHPIVCLVVCLLGHIWSFHVYYCLLKIGLLFSLFPLVRLARCAIFYRRCFSYF,40200
13,MLHLVTCISPSLYTSIFFLYLFHYFPSSHFLLNCRTSMHFSLSRLTFIYVLVL,50200
14,VEAGDGDGAPPKSAKRPRKKKEPVEEGDGDAAAPKPAKRPRKKKVDVTEAQKE,48100
15,FAFLAPFFCFLFYMSMGFFRLFLFCFLGFGTFVVFNLILVPAFSLYLNHVYLL,68100
16,MLFHFLAFPFLFFIFFLCCFSSWVAFHSPFSFLIMFSFEWIMLFFIRCTASSV,41600
17,GEEGEMSLTKDDLVELLEQDDNGWCRRSAPPARNRPVPAKPAATTNTVRASPV,< 6570
18,MKIVWFSGPKVCTLFIFLLFCFLLSCCSAFLVSFFCWFLSCWLFLLAFGLLFF,49400
19,SERLKNTGASGERAREGISINAGLASLGKVISQLSSRQPGAHVSYRDSKLTRL,48800
20,MLLDPRVIPLIFSTLFLFLHFNFLPNFPPLPLSFHPRPTLLPPFCSLLFPLLF,80000
21,MCTLKLLVLLRIYFPTYISFPFFSPSLLSKCHSFISFSYVPWSLVTFLIYLPS,75600

row,Sequence,transcriptional activation domain activity
1,ALKLLVDKVEDPKKNGPKFLKRAQLVVTGFNSQLKARSQRIGHFVNLLQVYLT,61600
2,QPQSPYQQAVLPYATIPNSNFQPSSFPVMAVMPPEVQFDGSFLNTLHPHTELP,34400
3,STHRIRCRNAEEPGGRARCRLVVGRRAPAGARDEVPSHFSEEELVASVVGVVV,73000
4,FKCCAVAFPIVCFATPYTALIQRPLVQQAAMFGIMIVKCFAVIFAFPCSIILL,81600
5,LVHFILTGSDFIWFFSYTPEAVALYLFLVEWSKLNYFWVALMYIWNVMPLFLL,63600
6,LYEHLDEDHRLLWSYLSRLGSYVFQPEIPDLTLYLSELKTVIRCFLNQLIKIS,56700
7,FYTLIVEEDQSLWLCLKWCFFDMLFMFGIPLLEIPWLEWSNGAAFLLFVLHAG,63300
8,VPGEVTDAEANGEVKAEDADGAEKTKPKKKKKSKAAKAKAKAEGAVEGATAAV,52900
9,LCDNVTTQWREWMFPHNETLPALGQDGINEDNLNETIDNMLIFDFLDDGSENN,109000
10,MWVTQHCLLATQWALLCVPPFRGLLLLLLFLYVFKFLFGLRIFILYLVSMLVM,46100
11,MLQIRSFVIAAFALPLCLLFCFFTLPFFALCPFLLYFPSFSILLLRLMLHLLV,49200
12,MFLLFSLCVDFKGVLGGWLLFFFLLAFDGFTRLLWGDVICFFFYLLLFATTHV,57600
13,MWHWLFYLFFSFFLQFLLFLFSFSSSFNFFYFCFPFLLFSVSFFCFCFWFLFF,50000
14,SDSGSEVDEKNNKNEKIDSESIKNNESKDDIPSKDENSSNDNREISKTDEEGH,35100
15,MNQTRHFFSPFFLFSLFLSFPSFLLSSFLLLFLPFYFSPSYLLLCLFSLIFYK,52800
16,RGSLREDESQHIATGVEGVHEARDGGRRTSNARAEKTKRVATPVCLSAAHTRG,28600
17,RGGGRKKKEADGEDGETTPKKTPRKRAAKEAEDGDASPKKKGRPAKAKPRQEP,17900
18,MSFQPLFYLLGLGVLFPLLFLLLSPPLFPSMAPFFLLQILLLMLTTELFFVPL,39700
19,PEALIQFNQVWVNHFKDPFTNIYYHQSPELSGSKYYELIYLRAFICLMFCFQF,55100
20,HHLHAFLLGLGFLFSLLICVSSSCLVSSSLLRLLLLLPRFARWIRFLLYILLL,64400
21,QNAIELTLLCITLIASDTLLLLRVSALCADRSSGVWGISYFYIIRRLLWGVYF,68700

row,Sequence,transcriptional activation domain activity
1,TSSPQKGAEKEEAAEAEPEKEKEAEAEAPASPQKRITPMKRGRGRPKRGGAAV,27500
2,IISARDAGNGEEAAAQNVLNCFEYQFPNLQTIQSLVHEQTLLSQLASSATPHS,75200
3,FFHVTIRVASQSCGIAFGILGFSNFRVFLAYLILGAEGYFTLVLCAFRFLISW,61100
4,SVYALVHFGAFYRSSHGPIRMLALHIQAFYNLCSLLFSWFAIANLWLTFSIII,67600
5,MLLKRVHSKVYVQDCLLIGGRSIFVLDMHLFFKLLLFTAASIRNQTVIMLIFV,54100
6,APTDETGDAETKPRGRGRPKGSGTAKKAESQPESAEPTTARRGRKRASAAAES,43400
7,MLRYFPTYRDEVVNAANYLNVVLSMDAFYYYQFCLNWTSTQLYDTWFNACFRI,59100
8,STPAAKPTPEPGQQPRKRGRPRIIRDDPPEGGGPPAAKKAKRGRKPKVVAPPA,27400
9,IRQLFGNYVLLYFFPWGFGCGFLPVLFPVQTCRIYHYLLFYFFFLSPFFFSIP,36700
10,KDHIGMKCVVAIVCLLDTMHQIFITHALYIYLIKGFANPLILTRLLWTFLIQL,56400
11,DEVTDWFGASEDIGLEFVEPWTELIEQRYMQCGDGDNNNFENLYNLFVNSNNI,137000
12,IRIADMHANFFYKNINYTLSLFIFQIWCHFNSTYLFDYTLLMLFNLLFTSLPV,37100
13,QLMESVSELDLPPLTLDEPPQAIKFNLNLFNNDPSGQQQQQQQQQQNSTSSTI,29000
14,MSLSFFFFSFFFLFFIIIFGRSRWLCYDGFGFFFFSFFLLMLAVFLFLLTYFT,50800
15,MFLKSELHFNEPLQHILISFIFLSCLSNLALMIFSVVYKVYILLALIMLVYAN,51900
16,MYIQYNILLTFPFLFLHFLFLFFFFFFFFLLFFFFLSRSPLTPSLAPPSPLLT,65300
17,MISPIFPRNLIIHNITFSMLFSFFSFLFYTLYALFNFPVPFFLSSILTPLNIF,71200
18,MADALAENTAKLQLDEETGEMVSKGELKKRMAKRAKKAAAAKAKAEVPATTSA,20400
19,GNTVAIFVPFWEYCVLFPSELRIWKRMLRARPFRWHFAPIMTIILRYLLIIFA,45200
20,MAPPTSKTTPDSPDSGAPRKRRRTALACEECRDRKRKCDGVKPVCGACKTRPA,21900
